Assay results from patent US20240417450A1 (UNIVERSITY OF TOKYO, published 2024).
Substitutions are numbered along the chain they refer to.

T1: E. coli wild-type SHMT, GST fusion protein (E. coli, UniProt P0A825 1-417)
T1 construct: Overexpressed in E. coli as a GST fusion protein, purified and immobilised on the ELISA plate at 2 ug/ml; not shown: Glutathione-S-transferase (GST) fusion partner
T1 sequence: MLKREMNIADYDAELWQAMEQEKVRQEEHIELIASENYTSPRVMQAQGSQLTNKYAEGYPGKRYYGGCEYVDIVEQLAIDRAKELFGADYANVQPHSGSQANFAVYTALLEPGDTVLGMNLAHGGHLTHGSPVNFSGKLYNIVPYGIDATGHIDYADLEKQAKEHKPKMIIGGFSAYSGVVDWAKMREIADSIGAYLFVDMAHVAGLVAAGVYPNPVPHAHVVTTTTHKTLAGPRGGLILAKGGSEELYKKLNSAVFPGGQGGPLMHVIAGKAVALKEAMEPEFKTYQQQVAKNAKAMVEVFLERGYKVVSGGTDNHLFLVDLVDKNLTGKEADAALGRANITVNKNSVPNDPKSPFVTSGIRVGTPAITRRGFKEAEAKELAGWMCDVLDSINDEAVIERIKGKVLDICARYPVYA

T2: E. coli SHMT (25-45) (E. coli)
T2 construct: Final purified peptide used for crystallisation
T2 peptide: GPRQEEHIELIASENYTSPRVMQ

T3: C. difficile iPGM (486-509) (C. difficile)
T3 construct: Final purified peptide used for crystallisation
T3 peptide: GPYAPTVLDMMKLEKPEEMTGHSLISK

T4: E. coli iPGM (E. coli, UniProt P37689 1-514, limits assumed)
T4 sequence (looked up): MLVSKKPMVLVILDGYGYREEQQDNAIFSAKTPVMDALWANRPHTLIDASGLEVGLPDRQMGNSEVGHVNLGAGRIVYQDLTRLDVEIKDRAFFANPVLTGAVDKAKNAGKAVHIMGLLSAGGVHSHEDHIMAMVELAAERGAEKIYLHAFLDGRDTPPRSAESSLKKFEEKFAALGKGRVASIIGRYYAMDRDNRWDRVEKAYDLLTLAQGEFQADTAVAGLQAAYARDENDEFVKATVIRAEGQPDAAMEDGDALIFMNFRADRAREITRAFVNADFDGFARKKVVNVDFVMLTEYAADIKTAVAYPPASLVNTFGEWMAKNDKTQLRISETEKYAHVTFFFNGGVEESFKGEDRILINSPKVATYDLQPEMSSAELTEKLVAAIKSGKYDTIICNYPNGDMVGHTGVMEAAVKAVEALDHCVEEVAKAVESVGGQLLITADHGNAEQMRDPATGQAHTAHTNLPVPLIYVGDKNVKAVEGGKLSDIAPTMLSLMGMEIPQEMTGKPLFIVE

B1: RS_H007_L001 (antibody, V domains shown)
VH: EVQLQQSGSELVKSGASVKLSCTVSGFNFTNYYIHWVRQRTEQGLEWIGRIDPENNQTTYAPKFQGKATMTADTSSNTAYLQLTSLTSEDTAVYYCARSTVLDYWGHGTTLTVSS
VL: DVLMTQSPASLSVSLGDRATISCRASQSIVHTNGNTYLEWYLQKPGQSPKLLIYKVSNRFSGVPDRFSGSGSGTDFILKISRVEAEDLGVYYCFQGSHVPPTFGGGTKLEVK
B2: RS_H000_L000GR Fab (Fab, V domains shown)
VH: B1 VH with N31D, N56D, Q57E
VL: B1 VL with S7T, A9L, S12P, R18Q, T20S
notes: Fab made by papain digestion of the W27 recombinant IgG expressed in CHO cells; also called IgG W27 Fab
B3: W27G2 antibody (mouse hybridoma-producing IgA) (antibody, V domains shown)
VH: B1 VH with N31D, N56D, Q57E
VL: DVLMTQTPLSLPVSLGDQASISCRASQSIVHTNGNTYLEWYLQKPGQSPKLLIYKVSNRFSGVPDRFSGSGSGTDFILKISRVEAEDLGVYYCFQGSHVPPTFGGGTKLEVKR
notes: Hybridoma-producing IgA from intestinal mucosa lamina propria B cells; also called W27 antibody; W27G2-CHT
B4: RS_H000_L005 (antibody, V domains shown)
VH: B1 VH with N31D, N56D, Q57E
VL: B1 VL with A25S
B5: RS_H000_L001 (antibody, V domains shown)
VH: B1 VH with N31D, N56D, Q57E
VL: B1 VL
notes: recombinant multimeric IgA made with H, L and J chain vectors (mainly dimers by SDS-PAGE); also called rW27
B6: RS_H007_L005 (antibody, V domains shown)
VH: B1 VH
VL: B1 VL with A25S
B7: RS_H007_L004 (antibody, V domains shown)
VH: B1 VH
VL: B1 VL with L11M, A25S
B8: RS_H007_L002 (antibody, V domains shown)
VH: B1 VH
VL: B1 VL with A19V

Legend:
[1] = molecular target: T1, E. coli wild-type SHMT, GST fusion …; experiment: ELISA, GST fusion protein immobilised at 2 ug/ml, antibody dilution series
E. coli SHMT (25-45) = molecular target: T2, E. coli SHMT (25-45); experiment: X-ray crystal structure of the Fab-peptide complex
[2] = molecular target: T3, C. difficile iPGM (486-509); experiment: X-ray crystal structure of the Fab-peptide complex
E. coli iPGM = molecular target: T4, E. coli iPGM; experiment: Western blot

Row | Binder | binding result [1] | further results
1 | B1 | binds | –
2 | B2 | – | binding result (E. coli SHMT (25-45)): binds; binding result [2]: binds
3 | B3 | binds | binding result (E. coli iPGM): no binding
4 | B4 | binds | –
5 | B5 | binds | –
6 | B6 | binds | –
7 | B7 | binds | –
8 | B8 | binds | –
